Experimental data taken from patent US7888090B2, “Mutants of O6-alkylguanine-DNA alkyltransferase” (Ecole Polytechnique Federale de Lausanne, priority 2004, dated 2011).

Legend:
[1] = Periplasmic expression / stability under oxidizing conditions; set-up: species or system E. coli
Procedure: The activities towards AGT substrates are measured after purification without addition of reducing agents such as dithiothreitol or beta-mercaptoethanol. Alternatively, the activities of mutant AGT and wild type human are compared after their export into cellular compartments with oxidising redox potential (e.g. the periplasm of E. coli due to their fusion to appropriate signal sequences. Activity towards AGT substrates under reducing and oxidising conditions is compared by performing the reactions in the presence or absence of reducing agents such as dithiothreitol or beta-mercaptoethanol.
The mutant AGT gene of Example 1 is amplified and cloned as described in Example 1 with the oligonucleotides SEQ ID NO:3, SEQ ID NO:10 and SEQ ID NO:4, SEQ ID NO:9 causing the further mutation Cys62Ala in the gene upon their incorporation by PCR. Protein expression, purification and determination of yield is carried out as described in Example 1. The mutant gene is PCR amplified with the primers SEQ ID NO:11, SEQ ID NO:12 that contain SfiI restriction sites to subclone the gene in fusion to the g3 protein of filamentous phage in the vector pAK100 (Krebber et al., J Immunol Methods 201:35-55, 1997). […] The supernatant is directly subjected to quantification of protein yield via SDS-PAGE and activity assays as described in Example 1.
Stability under oxidizing conditions: The mutant gene is PCR amplified with the primers SEQ ID NO:11 and SEQ ID NO:28 to subclone the gene into pAK100, as described in Example 2. […] To compare the reactivity of […] (Juillerat et al., Chem Biol 10:313-317, 2003) and the mutant, samples are incubated with 1 µM BG-Bt for 50 min, quenched with SDS-Laemmli buffer and analyzed by western blotting using neutravidin peroxidase conjugate (Pierce) or a monoclonal mouse anti-FLAG IgG antibody (M2, Sigma) and a secondary anti-mouse-IgG::HRP conjugate, and Renaissance reagent plus (NEN). […] The anti-FLAG IgG antibody is used to estimate the total amount of soluble AGT protein, whereas neutravidin quantifies the reactive portion of it. […]

[2] = Activity assay with biotinylated O^6-benzylguanine (BG-Bt), Western blotting; format: biochemical; conditions: statement in words
How it was run: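 Purified mutant GST-AGT (0.2 μM) reacted with 1 μM biotinylated O^6-benzylguanine in 50 mM HEPES pH 7.2, 1 mM DTT at room temperature. Time-point aliquots quenched with O^6-benzylguanine in SDS buffer. Biotinylated protein detected by Western blot with neutravidin-peroxidase, band intensity quantified.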

[3] = system: DNA; test: DNA binding in vitro (co-purified DNA, UV spectroscopy); set-up: species or system E. coli
Procedure: The interaction with DNA is e.g. quantified by assessing the amount of copurified DNA from E. coli extracts under conditions of low salt and absence of DNase. This is compared between parallel purifications of fusion proteins (e.g. fusions to GST) of wild type (human) and mutant AGT by spectroscopic methods (ratio of absorbance at 260 and 280 nm). Alternatively the interaction of AGT with DNA is measured as the inhibition of AGT reactivity with BG-Cy3 (O^6-(4-aminomethyl-benzyl)-guanine coupled to Cy3) as substrate in the presence of DNA. This approach takes advantage of a marked increase of fluorescence of the Cy3 fluorophore upon reaction of BG-Cy3 with AGT. The reaction kinetics of AGT with a Cy3-labeled benzylguanine derivative is followed by fluorescence intensity measurements over several hours at various concentrations of salmon sperm DNA.
For comparing the DNA binding properties of the protein in vitro, the harvested cells are resuspended, and the GST fusion protein is purified following the same method but in a buffer containing 50 mM phosphate, 0.1 M NaCl, 1 mM DTT. In the dialysed samples, the amount of subsequently co-purified DNA is estimated by UV spectroscopy. Spectra are recorded using a Perkin Elmer Lambda 10. The content of DNA corresponds to the ratio of the extinctions at 280 and 260 nm. […]

[4] = Expression yield of soluble GST-AGT fusion protein; set-up: species or system E. coli; conditions: comparator not stated
Procedure: Expression yield is measured in E. coli or in any other of the standard production cells for genetically modified proteins, e.g. yeast, or preferably insect cells, CHO cells or HeLa cells. For quantifying expression yield, AGT fusion proteins may be chosen such that the fusion partner allows easy purification and quantification. For example, expression yield in E. coli is determined by measuring and comparing the yield of soluble and insoluble GST-wild type AGT fusion protein and GST-mutant AGT fusion protein from parallel E. coli expression cultures. Samples of the soluble fractions and insoluble fractions (i.e. the inclusion bodies) after cell lysis are subjected to SDS-PAGE, and the band staining intensities of the corresponding AGT fusion proteins are compared. Soluble protein is quantified after purification of the fusion protein from cell extracts by affinity chromatography (e.g. for GST-AGT fusion proteins by glutathione sepharose) by subjecting the purified fractions to a protein concentration assay (Bradford, Anal Biochem 72:248-54, 1976). The expression yield of similar proteins in the soluble fraction (difference in point mutations) can be used as a measure for protein stability in the unpurified as well as the purified state (Ohage et al., J Mol Biol 291:1119-1128, 1999; Wirtz et al., Protein Sci 8: 2245-50, 1999). Therefore, this is taken as a measure of folding stability and aggregation tendency.
Protein expression from this vector is carried out in E. coli strain BL21. An exponentially growing culture is induced with 0.5 mM IPTG, and the expression is carried out for 3.5 h at 24° C.
Purification: The harvested cells are resuspended in a buffer containing 50 mM phosphate, 0.5 M NaCl, 1 mM DTT, supplemented with 1 mM PMSF and 2 μg/ml aprotinin, and disrupted by lysozyme and sonification. The cell debris are separated by centrifugation at 40000×g. The extract is applied to pre-equilibrated glutathione sepharose (Amersham) which is then washed with 20 bed volumes (50 mM phosphate, 0.5 M NaCl, 1 mM DTT). The mutated GST-AGT fusion protein is eluted with 10 mM reduced glutathione in 50 mM Tris·HCl pH 7.9. The purified protein is dialyzed against 50 mM HEPES pH 7.2; 1 mM DTT; 30% glycerol and then stored at −80° C.
Determination of protein yield: Purity and relative amounts of the GST-AGT fusion proteins are compared by running samples on SDS-PAGE. UV spectra of the pure fractions are recorded using a Perkin Elmer Lambda 10. For protein samples containing no significant amount of DNA, the extinction at 280 nm as a measure of protein content is compared to that of wild type hAGT or PGEG-hAGT that were purified under the same conditions.

B1: Cys62Ala, Lys125Ala, Ala127Thr, Arg128Ala, Asn157Gly, Ser159Glu, truncated after Gly182: particularly preferred hAGT mutant with the listed mutations (protein, UniProt P16455 1-207, looked up, variant C62A K125A A127T R128A N157G S159E del183-207)
Methylated-DNA--protein-cystei …: MDKDCEMKRTTLDSPLGKLELSGCEQGLHEIKLLGKGTSAADAVEVPAPAAVLGGPEPLMQATAWLNAYFHQPEAIEEFPVPALHHPVFQQESFTRQVLWKLLKVVKFGEVISYQQLAALAGNPAATAAVGGAMRGNPVPILIPCHRVVCSSGAVGGYEGGLAVKEWLLAHEGHRLGKPGLG
For B1, the sensitivity to oxidation [1] was “reduced sensitivity to oxidation”, the “activity towards O^6-benzylguanine substrates” value [2] was “increased reactivity” and the “reduced DNA binding” value [3] was “reduced DNA binding”. The “expression yield in E. coli” value [4] was “increased expression yield”.
